According to patent US20220213176A1 (SHANGHAITECH UNIVERSITY, published 2022):

B1: S-B8 (antibody, V domains shown)
VH: QVQLVQSGGGLIQPGGSLRLSCAASGFTVSLSHMNWVRQAPGKGLEWVSITYGDGNSDYADSVKGRFTISRDNSKNTLYLQMNSLRAEDTAVYYCAREYYYGMDVWGQGTTVTVSS
VL: not shown
notes: also called S-B8 dimer
B2: S-D4 (antibody, V domains shown)
VH: QVQLQESGGGVVQPGRSLRLSCEVSGFTFSDYGMHWVRQAPGKGLEWVAVIWSEGSTEYYADSVKGRFTISRDNSKDTLYLQMNSLRAEDTAVYYCARPGYPTSTDRSPAAAGARQYYYYGMDVWGQGTTVTVSS
VL: NFMLTQPHSVSESPGKTVTISCTRSGGSGAANYVQWYQQRPGSSPTTLIYEDSRRPPGVPDRFSGSVDTSSNSASLTISGLQTEDEADYYCQSYDSSNHVVFGGGTKLTVLG
notes: also called S-D4 dimer; S-D4 IgG4
B3: S-E6 (antibody, V domains shown)
VH: QVTLRESGPGLVKPSETLSLTCAVSGGSLSSVNYYWSWIRQHPGKGLEWIGYIYYSGSTNYNPSLKSRVTMSLDTSKNQFSLKLSSVTAADTAVYYCATPGAIMGALHIWGQGTLVTVSS
VL: QAVLTQPSSASSTPGQRVIISCSGSSSNIGSNTVSWYQQVPGAAPKLLIYFDYRRPSGVPDRFSGTRSGTSASLGISGLQSEDEADYYCAAWDDSLSAWVFGRGTKLTVLG
notes: also called S-E6 dimer; dimer S-E6
B4: S-E6 trimer (T4F) (other)
heavy: QVTLRESGPGLVKPSETLSLTCAVSGGSLSSVNYYWSWIRQHPGKGLEWIGYIYYSGSTNYNPSLKSRVTMSLDTSKNQFSLKLSSVTAADTAVYYCATPGAIMGALHIWGQGTLVTVSSASTKGPSVFPLAPSSKSTSGGTAALGCLVKDYFPEPVTVSWNSGALTSGVHTFPAVLQSSGLYSLSSVVTVPSSSLGTQTYICNVNHKPSNTKVDKKVEPPKSGGGGSGGGGSGGGGSPGSGYIPEAPRDGQAYVRKDGEWVLLSTFLGHHHHHH
light: QAVLTQPSSASSTPGQRVIISCSGSSSNIGSNTVSWYQQVPGAAPKLLIYFDYRRPSGVPDRFSGTRSGTSASLGISGLQSEDEADYYCAAWDDSLSAWVFGRGTKLTVLGGLGGLVDYKGQPKAAPSVTLFPPSSEELQANKATLVCLISDFYPGAVTVAWKADSSPVKAGVETTTPSKQSNNKYAASSYLSLTPEQWKSHRSYSCQVTHEGSTVEKTVAPTECS
notes: also called trimer S-E6; trimeric S-E6
B5: S-B8 trimer (other)
heavy: QVQLVQSGGGLIQPGGSLRLSCAASGFTVSLSHMNWVRQAPGKGLEWVSITYGDGNSDYADSVKGRFTISRDNSKNTLYLQMNSLRAEDTAVYYCAREYYYGMDVWGQGTTVTVSSASTKGPSVFPLAPSSKSTSGGTAALGCLVKDYFPEPVTVSWNSGALTSGVHTFPAVLQSSGLYSLSSVVTVPSSSLGTQTYICNVNHKPSNTKVDKKVEPPKSGGGGSGGGGSGGGGSPGSGYIPEAPRDGQAYVRKDGEWVLLSTFLGHHHHHH
light: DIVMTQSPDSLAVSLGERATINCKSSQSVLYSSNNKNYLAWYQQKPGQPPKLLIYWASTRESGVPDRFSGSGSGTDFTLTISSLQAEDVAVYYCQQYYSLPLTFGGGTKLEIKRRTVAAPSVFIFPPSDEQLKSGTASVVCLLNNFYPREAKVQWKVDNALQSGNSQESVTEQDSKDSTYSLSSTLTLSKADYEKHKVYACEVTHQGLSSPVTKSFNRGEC

How the values were obtained:
[1] = molecular target: SARS-CoV-2 N501Y+D614G mutant pseudovirus spike (spikeΔ19) (SARS-CoV-2, UniProt P0DTC2 14-1254); experiment: cell-based or functional assay
[2] = molecular target: SARS-CoV-2 K417N+E484K+N501Y+D614G mutant pseudovirus spike (spikeΔ19) (SARS-CoV-2, UniProt P0DTC2 14-1254); experiment: cell-based or functional assay
[3] = molecular target: SARS-CoV-2 B.1.617.2 pseudovirus spike (SARS-CoV-2); experiment: cell-based or functional assay
[4] = molecular target: wild-type SARS-CoV-2 pseudovirus spike (spikeΔ19) (SARS-CoV-2, UniProt P0DTC2 14-1254); experiment: cell-based or functional assay
B.1.351 S-RBD [5] = molecular target: T1, B.1.351 S-RBD (SARS-CoV-2, UniProt P0DTC2 319-541); experiment: BLI (Octet RED96), biotin B.1.351 S-RBD on SA sensor, 1:1 fit
T1 construct: also called spike RBD of B.1.351 (Beta Strain)

B.1.351 S-RBD [6] = molecular target: T1, B.1.351 S-RBD; experiment: BLI (Octet RED96), biotinylated B.1.351 S-RBD on SA biosensor, 1:1 binding model

| Binder | NT50, N501Y+D614G spike pseudovirus neutralization [1] | NT50 (B.1.351) (nM), pseudovirus neutralization [2] | NT50 (B.1.617.2) (nM), pseudovirus neutralization [3] | NT50, wild-type SARS-CoV-2 pseudovirus neutralization [4] | Kd (B.1.351 S-RBD [5]) | Kd (B.1.351 S-RBD [6]) |
| --- | --- | --- | --- | --- | --- | --- |
| B1 | 0.53 nM | 1.2 nM | 0.37 nM | – | – | – |
| B2 | 0.042 nM | 0.66 nM | 0.24 nM | 0.48 nM | – | – |
| B3 | 0.021 nM | 0.32 nM | 0.065 nM | 0.025 nM | – | – |
| B4 | – | – | 0.007 nM | – | 580 pM | 576 pM |
| B5 | – | 0.35 nM | 0.15 nM | – | – | – |
